Reference: patent US10961546B2, “Glyphosate-resistant gene screening method, EPSPS mutant gene and deficient strain and use” (GEVOTO LLC, priority 2016, dated 2021)
“And” between values parts separate entries of the source, which are not always exact repeats. Identical values can stand only once.

Experiments:
[1] = test system: E. coli (EPSPS gene-and-C-P lyase genes-deleted strain); test: glyphosate resistance testing of Oryza sativa EPSPS mutant gene: growth of transformed E. coli on culture media containing glyphosate; type: cell-based; parameters: key: saturation index=0, no growth; saturation index=1, minor growth; saturation index=2, growth to half-saturation; saturation index=3, vigorous growth, but still not saturated; saturation index=4, rapid growth, meaning the strains have reached the maximum (saturation) concentration or the growth has reached the limit; conditions: E. coli transformed with the gene
Protocol: A plurality of the above obtained mutant strains were inoculated on a plurality of screening culture media with different concentrations of glyphosate, respectively (the screening culture media contained different concentrations of glyphosate, and the glyphosate concentrations contained in them were 10 mM, 20 mM, 50 mM, etc., respectively, having a gradient in glyphosate concentrations, and of course, the glyphosate concentration may be set as required), and cultured at 37° C. overnight. The screening culture media were obtained by using M9 as a basal medium, to which certain concentrations of antibiotics, including Specs (Spectinomycin), Gen (Gentamycin) and Amp (Ampicillin), and different concentrations of glyphosate were added. M9 culture medium consists of the following ingredients: 13˜14 g/L of Na2HPO4, 5.7˜6.3 g/L of KH2PO4, 0.9˜1.1 g/L of NaCl, 1.8˜2.2 g/L of NH4Cl, 37˜43 g/L of glucose, 48˜52 g/L of MgSO4.7H2O and 21˜23 g/L of CaCl2.
(§1) For glyphosate resistance testing of Oryza sativa EPSPS mutant gene, E. coli (EPSPS gene-and-C-P lyase genes-deleted strain) respectively transformed with OsEM gene (experimental group) and OsE gene (control group) were inoculated to culture media containing 0 mM, 1 mM, 5 mM, 10 mM, 20 mM, 50 mM and 100 mM glyphosate to see the growth of E. coli (indicated by growth saturation index: saturation index=0, no growth; saturation index=1, minor growth; saturation index=2, growth to half-saturation; saturation index=3, vigorous growth, but still not saturated; saturation index=4, rapid growth, meaning the strains have reached the maximum (saturation) concentration or the growth has reached the limit).

[2] = test system: E. coli (EPSPS gene-and-C-P lyase genes-deleted strain); test: glyphosate resistance testing of Glycine max EPSPS mutant gene: growth of transformed E. coli on culture media containing glyphosate; type: cell-based; parameters: key: saturation index=0, no growth; saturation index=1, minor growth; saturation index=2, growth to half-saturation; saturation index=3, vigorous growth, but still not saturated; saturation index=4, rapid growth, meaning the strains have reached the maximum (saturation) concentration or the growth has reached the limit; conditions: E. coli transformed with the gene
Protocol: as §1
For glyphosate resistance testing of Glycine max EPSPS mutant gene, E. coli (EPSPS gene-and-C-P lyase genes-deleted strain) respectively transformed with GmEM gene (experimental group) and GmE gene (control group) were inoculated to culture media containing 0 mM, 1 mM, 5 mM, 10 mM, 20 mM, 50 mM and 100 mM glyphosate to see the growth of E. coli.

[3] = culture medium with 0 mM glyphosate
[4] = culture medium with 1 mM glyphosate
[5] = culture medium with 5 mM glyphosate
[6] = culture medium with 10 mM glyphosate
[7] = culture medium with 20 mM glyphosate
[8] = culture medium with 50 mM glyphosate
[9] = culture medium with 100 mM glyphosate

B1: OsE: wild type Oryza sativa EPSPS gene, SEQ ID NO.1; control group (nucleic acid, listed as Oryza sativa)
DNA: ATGGCGTCCAACGCCGCGGCTGCGGCGGCGAAGGCGGAGGAGATCGTGCTCCAGCCCATCAGGGAGATCTCCGGGGCGGTTCAGCTGCCAGGGTCCAAGTCGCTCTCCAACAGGATCCTCCTCCTCTCCGCCCTCTCCGAGGGCACAACAGTGGTGGACAACTTGCTGAACAGTGAGGATGTTCACTACATGCTTGAGGCCCTGAAAGCCCTCGGGCTCTCTGTGGAAGCAGATAAAGTTGCAAAAAGAGCTGTAGTCGTTGGCTGTGGTGGCAAGTTTCCTGTTGAGAAGGATGCGAAAGAGGAAGTGCAACTCTTCTTGGGGAACGCTGCGACTGCAATGCGACTCTTGACAGCAGCCGTGACTGCTGCTGGTGGAAATGCAACTTATGTGCTTGATGGAGTGCCACGAATGAGGGAGAGACCGATTGGTGACTTGGTTGTCGGGTTGAAACAACTTGGTGCGGATGTCGACTGTTTCCTTGGCACTGAATGCCCACCTGTTCGTGTCAAGGGAATTGGAGGACTTCCTGGTGGCAAGGTTAAGCTCTCTGGTTCCATCAGCAGTCAGTACTTGAGTGCCTTGCTGATGGCTGCTCCTTTGGCCCTTGGGGATGTGGAGATCGAAATCATTGACAAACTAATCTCCATTCCTTACGTTGAAATGACATTGAGATTGATGGAGCGTTTTGGTGTGAAGGCAGAGCATTCTGATAGTTGGGACAGATTCTATATTAAGGGAGGGCAGAAGTACAAATCTCCTGGAAATGCCTATGTTGAAGGTGATGCCTCAAGCGCGAGCTATTTCTTGGCTGGTGCTGCAATCACTGGAGGCACTGTGACAGTTCAAGGTTGTGGTACGACCAGTTTGCAGGGTGATGTCAAATTTGCTGAGGTACTTGAGATGATGGGAGCAAAGGTTACATGGACTGACACCAGTGTAACCGTAACTGGTCCACCACGTGAGCCTTATGGGAAGAAACACCTGAAAGCTGTTGATGTCAACATGAACAAAATGCCTGATGTTGCCATGACCCTTGCCGTTGTTGCACTCTTCGCTGATGGTCCAACTGCTATCAGAGATGTGGCTTCCTGGAGAGTAAAGGAAACCGAAAGGATGGTTGCAATTCGGACCGAGCTAACAAAGCTGGGAGCATCGGTTGAAGAAGGTCCTGACTACTGCATCATCACCCCACCGGAGAAGCTGAACATCACGGCAATCGACACCTACGATGATCACAGGATGGCCATGGCCTTCTCCCTCGCTGCCTGCGCCGACGTGCCCGTGACGATCAGGGACCCTGGTTGCACCCGCAAGACCTTCCCCAACTACTTCGACGTTCTAAGCACTTTCGTCAGGAACTGA
Growth saturation index [1, 3]: 4
Growth saturation index [1, 4]: 0
Growth saturation index [1, 5]: 0
Growth saturation index [1, 6]: 0
Growth saturation index [1, 7]: 0
Growth saturation index [1, 8]: 0
Growth saturation index [1, 9]: 0

B2: GmE: wild type Glycine max EPSPS gene, SEQ ID NO.5; control group (nucleic acid)
DNA: ATGGATAGCGTGGCGGCGGCGGAAAAACCGAGCACCAGCCCGGAAATTGTGCTGGAACCGATTAAAGATTTTAGCGGCACCATTACCCTGCCGGGCAGCAAAAGCCTGAGCAACCGCATTCTGCTGCTGGCGGCGCTGAGCGAAGGCACCACCGTGGTGGATAACCTGCTGTATAGCGAAGATATTCATTATATGCTGGGCGCGCTGCGCACCCTGGGCCTGCGCGTGGAAGATGATAAAACCACCAAACAGGCGATTGTGGAAGGCTGCGGCGGCCTGTTTCCGACCAGCAAAGAAAGCAAAGATGAAATTAACCTGTTTCTGGGCAACGCGGCGACCGCGATGCGCAGCCTGACCGCGGCGGTGGTGGCGGCGGGCGGCAACGCGAGCTATGTGCTGGATGGCGTGCCGCGCATGCGCGAACGCCCGATTGGCGATCTGGTGGCGGGCCTGAAACAGCTGGGCGCGGATGTGGATTGCTTTCTGGGCACCAACTGCCCGCCGGTGCGCGTGAACGGCAAAGGCGGCCTGCCGGGCGGCAAAGTGAAACTGAGCGGCAGCGTGAGCAGCCAGTATCTGACCGCGCTGCTGATGGCGGCGCCGCTGGCGCTGGGCGATGTGGAAATTGAAATTGTGGATAAACTGATTAGCGTGCCGTATGTGGAAATGACCCTGAAACTGATGGAACGCTTTGGCGTGAGCGTGGAACATAGCGGCAACTGGGATCGCTTTCTGGTGCATGGCGGCCAGAAATATAAAAGCCCGGGCAACGCGTTTGTGGAAGGCGATGCGAGCAGCGCGAGCTATCTGCTGGCGGGCGCGGCGATTACCGGCGGCACCATTACCGTGAACGGCTGCGGCACCAGCAGCCTGCAGGGCGATGTGAAATTTGCGGAAGTGCTGGAAAAAATGGGCGCGAAAGTGACCTGGAGCGAAAACAGCGTGACCGTGAGCGGCCCGCCGCGCGATTTTAGCGGCCGCAAAGTGCTGCGCGGCATTGATGTGAACATGAACAAAATGCCGGATGTGGCGATGACCCTGGCGGTGGTGGCGCTGTTTGCGAACGGCCCGACCGCGATTCGCGATGTGGCGAGCTGGCGCGTGAAAGAAACCGAACGCATGATTGCGATTTGCACCGAACTGCGCAAACTGGGCGCGACCGTGGAAGAAGGCCCGGATTATTGCGTGATTACCCCGCCGGAAAAACTGAACGTGACCGCGATTGATACCTATGATGATCATCGCATGGCGATGGCGTTTAGCCTGGCGGCGTGCGGCGATGTGCCGGTGACCATTAAAGATCCGGGCTGCACCCGCAAAACCTTTCCGGATTATTTTGAAGTGCTGGAACGCCTGACCAAACATTAA
modifications: Glycine max
notes: control group
Growth saturation index [2, 3]: 4
Growth saturation index [2, 4]: cannot grow normally and 0
Growth saturation index [2, 5]: cannot grow normally and 0
Growth saturation index [2, 6]: cannot grow normally and 0
Growth saturation index [2, 7]: cannot grow normally and 0
Growth saturation index [2, 8]: cannot grow normally and 0
Growth saturation index [2, 9]: 0
